The results in this text go back to publication PMC2112603 (The Journal of Cell Biology, 1983).

For the test, the target named is F-actin from chicken breast muscle (chicken, UniProt P68139 1-377). In words: co-sedimentation.

B1: 110-kdalton protein-calmodulin complex (complex)
chain 1: MEATTSLLDAAAVGDLVMLDPLSEESLLRTLQERFSRGEIYTYIGEVVISVNPYKPLPIYTPEKVEEYHNCNFFAVKPHIYAIADDAYRSLRDRDRDQCILITGESGAGKTEASKLVMSYVAAVSSKGEEVDKVKEQLLQSNPVLEAFGNAKTIRNDNSSRFGKYMDVEFDFKGDPLGGVISNYLLEKSRIVRHVKGERNFHIFYQLLAGGSAQLLQQLKLRPDCSHYGYLNHEKSVLPGMDDAANFRAMQDAMAIIGFAPAEVTALLEVTAVVLKLGNVKLSSCFQASGMEASSITEPRELQEISQLIGLDPSTLEQALCSRTVKVRDESVLTALSVSQGYYGRDALAKNIYSRLFDWLVNRINTSIQVKPGKQRKVMGVLDIYGFEIFQDNGFEQFIINYCNEKLQQIFILMTLKEEQEEYVREGIQWTPVEFFDNSIICDLIENSKVGILAMLDEECLRPGTVNEDTFITKLNQIFASHKRYESKETLNAKHVTDVSLPLRCFRIHHYAGKVTYNVTGFIEKNNDLLFRDLSQAMWAARHTLLRSLFPEGDPQRPSLKLPPTTGSQFKASVATLMKNLYSKNPNYIRCIKPNDTKTAMLFTPDLVLAQVRYLGLMENVRVRRAGYAFRQLYQPFLERYKMLSRKTWPRWTGGDREGAEVLLAELKFPPEELAYGHTKIFIRSPRTLFDLEKRRQQRVAELATLIQKMFRGWCCRKRYQLMRKSQILISAWFRGHMQRNRYKQMKRSVLLLQAYARGWKTRRMYRRYFRSDACTRLSNFIYRRMVQKYLMGLQKNLPPMAVLDRTWPPAPYKFLSDANQELKSIFYRWKCKKYREQLTPQQRAMLQAKLCASELFKDKKALYAQSLQQPFRGEYLGLTQNRKYQKLQAVAKDKLVMAEAVQKVNRANGKTVPRLLLLTTEHLVLADPKAAQPKMVLSLCDIQGASVSRFSDGLLALHLKETSTAGGKGDLLLVSPHLIELVTRLHQTLMDATAQALPLSIADQFSTRFPKGDVAVTVVESAKGGGDVPVCKKRGSHKMEILVH
chain 2: […]
As to B1, the binding result was “binds”.
